From patent publication US20120093811A1 (published 2012) come the findings set out here.

B2: Source 2 VEGF-D, purified recombinant human VEGF-D monomer (R&D Systems, Catalog Number 622-VD/CF) (ligand)
chain: FYDIETLKVIDEEWQRTQCSPRETCVEVASELGKSTNTFFKPPCVNVFRCGGCCNEESLICMNTSTSYISKQLFEISVPLTSVPELVPVKVANHTGCKCLPTAPRHPYS
B3: Source 1 VEGF-D, mature dimeric recombinant human VEGF-D (CSIRO) (ligand)
chain: FAATFYDIETLKVIDEEWQRTQCSPRETCVEVASELGKSTNTFFKPPCVNVFRCGGCCNEESLICMNTSTSYISKQLFEISVPLTSVPELVPVKVANHTGCKCLPTAPRHPYSIIRR

Assay [1] addresses T1, VEGF-D (recombinant human; source not given) (human, UniProt O43915 89-205, limits assumed).
T1 construct: also used here as target of IC50 values averaged over Source 1 and Source 2; also called vascular endothelial growth factor-D
T1 sequence: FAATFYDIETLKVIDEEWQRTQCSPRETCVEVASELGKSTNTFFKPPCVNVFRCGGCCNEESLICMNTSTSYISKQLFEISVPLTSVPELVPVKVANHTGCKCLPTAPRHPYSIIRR
In words: SPR (BIAcore), VEGF-D amine-coupled on CM5, purified scFv as analyte. On the procedure: scFv variants were fully characterized using a BIAcore™ biosensor. All isolated scFv samples were purified as monomer peaks by anti-FLAG affinity chromatography followed by gel filtration chromatography. BIAcore™ analysis was performed by directly immobilizing VEGF-D on a CM5 surface using amine coupling, with the scFv run as the analyte. Analysis of binding was carried out using the BIAevaluation kinetic analysis software. All repeats were separate protein expressions and were performed at 25° C.
Clones F61, A63, AR7, AW61, CJ37, DI126 and DA18 were produced in large-scale expression cultures and purified by anti-FLAG affinity chromatography and gel filtration. The binding kinetics against VEGF-D were then measured using a BIAcore™ biosensor as described previously.
For orientation: In SPR one partner is held on a chip, and binding of the other changes the refractive index at the surface.

Assay [2] deals with T1, VEGF-D (recombinant human; source not …). In words: SPR (BIAcore), VEGF-D amine-coupled on CM5, purified scFv as analyte, 25 C. On the procedure: (§1) Kinetic values were obtained for the three humanized scFv variants, 1A, 3A and 4A (Table 2). All isolated scFv samples were purified as monomer peaks by anti-FLAG affinity and gel filtration chromatography. BIAcore™ analysis was performed by directly immobilizing VEGF-D on a CM5 surface using amine coupling, with the scFv run as the analyte. Analysis of binding was carried out using the BIAevaluation kinetic analysis software. All repeats were separate protein expressions and were performed at 25° C.

For assay [3] the target is unchanged. In words: SPR (BIAcore), purified 1A scFv on VEGF-D, repeat 2. On the procedure: as §1
(§2) The binding of purified 1A scFv to VEGF-D was analyzed using a BIAcore™ biosensor (Table 3).

The target is the same in assay [4]. In words: SPR (BIAcore), purified 1A scFv on VEGF-D, repeat 3. As to the method: as §1, §2
For assay [5] the target is unchanged. In words: SPR (BIAcore), purified 1A scFv on VEGF-D, repeat 1. As to the method:
as §1, §2

Assay [6] shares this target. In words: SPR (BIAcore), purified 1A scFv on VEGF-D, average of three repeats. On the procedure: as §1, §2
The target of assay [7] is VEGFR-2-EpoR chimeric receptor on VEGFR-2-Ba/F3 cells (mouse, UniProt P35918 20-762). In words: cell-based or functional assay.
In assay [8] the target is B3. In words: SPR Protocol B: VEGF-D dimer amine-coupled, IgG as analyte. As to the method:
(§3) Protocol B: In the second assay format, Protocol B, the orientation of the IgGs and the VEGF-D antigen was reversed relative to Protocol A. The Source 1 VEGF-D dimer was immobilized directly on the chip surface by amine coupling and the murine anti-VEGF-D monoclonal antibody, Ig-1A or IgG variants flowed over this surface as analytes at concentrations of 4 nM, 1.33 nM, and 0.44 nM. This protocol allowed avidity effects to be controlled by reducing the density of dimeric VEGF-D immobilized on the chip and in effect reduce the bivalent binding properties of the system being analyzed.
(§4) All four flow cells on a CM5 chip were activated for 7 min at 25° C. using a mixture of NHS.EDC. Flow cell one was used as an unmodified (activated and blocked) reference against flow cells 2-4. Source 1 VEGF-D dimer was diluted to 1-3 μg/ml into 10 mM sodium acetate, pH 4, and injected over three surfaces for different lengths of time to achieve low ligand densities of 10, 15 and 20 RU to minimize avidity effects of the IgG. All surfaces were blocked for 7 min with ethanolamine (1M, pH 8.2) and pre-conditioned using five 10 s injections of 100 mM H₃PO₄; 1M NaCl. Immobilization steps were carried out at a flow rate of 30 μl/min using HBS-N running buffer.
(§5) All IgG binding experiments were performed at 25° C. using HBS-EP+ running buffer. Analytes (murine reference anti-VEGF-D monoclonal antibody and humanized variants) were injected for 200 s at a flow rate of 70 μl/min and dissociation monitored for 250 s. The antigen surfaces were regenerated with a 10 s pulse of 100 mM H₃PO₄; 1M NaCl. Analyte concentrations used for murine and humanized variants were 4 nM, 1.33 nM, and 0.44 nM. Data was processed using the reference surface and double referencing from blank injections. Binding constants for the IgG/antigen interactions were determined from the three antigen surfaces globally fitted to a 1:1 interaction model. Refractive index parameter was constant (RI=0).

Assay [9] has as its target B3. In words: SPR Protocol A: IgG captured by anti-human Fc, VEGF-D dimer as analyte. As to the method:
(§6) Protocol A: The first assay format, Protocol A, used an assay system where IgGs were captured on a biosensor chip surface using an anti-human IgG (Fc) antibody and the Source 1 VEGF-D dimer run over the chip as the analyte in solution. This ensured that all IgG molecules were presented to the antigen in an active orientation.
(§7) The SPR protocol was slightly modified to compensate for the dimeric nature of the VEGF-D. Ig-1A or IgG variants were analyzed using an anti-human capture kit as described for Anti-human IgG (Fc) capture above, except that 1000 RU of the IgG or IgG variant was captured on the anti-human chip surface. […] The kinetics generated using this approach are accurate within the experimental parameters set. This standard assay protocol is best suited to studying 1:1 interactions and thus, may not be ideal for analyzing binding between the IgG variants and the VEGF-D dimer. In light of this, Protocol B was also used.

Assay [10] addresses B3. In words: SPR Protocol B, KD against that of Ig-1A. As to the method:
as §3, §4, §5

Assay [11] has as its target B2. In words: SPR, KD against that of Ig-1A.
The target of assay [12] is B3. In words: cell-based or functional assay.
Assay [13] has as its target B2. In words: cell-based or functional assay.
For assay [14], the target named is B3. In words: SPR Protocol A, KD against that of Ig-1A. On the procedure: as §6, §7
The target in assay [15] is B2. In words: SPR, IgG captured by anti-human IgG (Fc), Source 2 VEGF-D monomer as analyte.

Chain of VEGFR-2-EpoR chimeric receptor on VEGFR-2-Ba/F3 cells (P35918 20-762, change not shown): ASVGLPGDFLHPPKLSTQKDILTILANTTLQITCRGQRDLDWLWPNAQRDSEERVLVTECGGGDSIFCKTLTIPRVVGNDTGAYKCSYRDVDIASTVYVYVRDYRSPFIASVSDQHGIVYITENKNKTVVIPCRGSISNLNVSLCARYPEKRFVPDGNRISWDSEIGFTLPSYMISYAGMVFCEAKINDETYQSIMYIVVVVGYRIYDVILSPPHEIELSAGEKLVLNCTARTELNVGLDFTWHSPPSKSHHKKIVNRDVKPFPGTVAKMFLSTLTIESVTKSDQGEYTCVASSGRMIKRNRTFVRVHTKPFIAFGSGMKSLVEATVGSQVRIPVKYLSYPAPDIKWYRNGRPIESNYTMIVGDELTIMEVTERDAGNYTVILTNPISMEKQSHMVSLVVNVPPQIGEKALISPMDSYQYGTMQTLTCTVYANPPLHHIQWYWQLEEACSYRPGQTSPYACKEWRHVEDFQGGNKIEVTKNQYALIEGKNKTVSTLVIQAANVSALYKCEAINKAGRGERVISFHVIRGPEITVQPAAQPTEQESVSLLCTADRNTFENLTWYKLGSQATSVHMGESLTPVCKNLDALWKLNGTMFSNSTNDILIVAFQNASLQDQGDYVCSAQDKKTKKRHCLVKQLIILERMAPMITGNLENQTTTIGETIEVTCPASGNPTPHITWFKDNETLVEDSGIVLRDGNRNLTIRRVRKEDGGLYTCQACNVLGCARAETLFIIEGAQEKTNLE

B1: humanized scFv 1A (scFv)
scFv: QVQLVQSGAEVKQPGASVKVSCKASGYTFTGYNMYWVRQAPGQGLEWMGYIDPYNGDTTYNQKFKGRVTMTTDTSTSTAYMELRSLRSDDTAVYYCARTSYYGGMDYWGRGTLVTVASGGGASGGGGSGGGGSDIVMTQTPLSSPVTLGQPASISCRSSQSLVHSNGNTYLHWLQQRPGQPPRLLIYKVSNRFSGVPDRFSGSGAGTDFTLKISRVEAEDVGVYYCSQSTHVPRTFGQGTKLEIKR
notes: also called 1A scFv; clone 1A
For the molecule B1, the Kd (in general, a measure of binding affinity in units of concentration) in assay [1] is 13.1 nM; in assay [2] it was 13.1 nM; in assay [3] it was 10.4 nM; in assay [4], 14.8 nM; in [5] it was 14.2 nM; in assay [6], 13.1 nM. Besides, the koff – broadly, the rate constant with which the complex falls apart – amounted to 0.0108 s⁻¹ in assay [1]; 0.0109 s⁻¹ in assay [2]; 0.011 s⁻¹ in [3]; 0.0104 s⁻¹ in [4]; 0.0109 s⁻¹ in assay [5]; 0.0108 s⁻¹ in assay [6]. Also, the kon (commonly the second-order rate constant of association) was 845000 M⁻¹ s⁻¹ in assay [1]; 769000 M⁻¹ s⁻¹ in assay [2]; 1.06e+06 M⁻¹ s⁻¹ in assay [3]; 707000 M⁻¹ s⁻¹ in assay [4]; 769000 M⁻¹ s⁻¹ in assay [5]; 845000 M⁻¹ s⁻¹ in assay [6].

For the molecule B2, the “concentration within EC50-EC80 for proliferation of VEGFR-2-Ba/F3 cells” value in assay [7] was found to be 0.1 µg/mL.

As to B3, the “concentration within EC50-EC80 for proliferation of VEGFR-2-Ba/F3 cells” value in assay [7] was 0.005 µg/mL.

B4: humanized IgG antibody derived from clone DI26 (antibody, V domains shown)
VH: QVQLVQSGAKVKQPGASVKASCKASGYTFTGYNMYWVRQAPGQGLEWMGYIDPYSGDTTYNQKFKGRVTMTTDTSTSTAYMELRSLRSDDTAVYYCARTSYYGGMDYWGRGTLVTVAS
VL: DIVMTQTPLSSPVTLGQPASISCRSSQSLVHSNGNTYLHWLQQRPGQPPRLLIYKVSNRFSGVPDRFSGSGAGTDFTLKISRVEAEDVGVYYCSQSTHVPRTFGQGTKLEIKR
notes: IgG
Consider B4, for which the figures for the equilibrium dissociation constant (Kd) in assay [8], in assay [9] and in assay [15] were 0.88 nM, 0.699 nM and 4.1 nM, respectively. The dissociation rate constant (koff) was found to be 0.0012 s⁻¹ in assay [8], 0.00039 s⁻¹ in assay [9] and 0.0041 s⁻¹ in assay [15]. The figures for the association rate constant (kon) in assay [8], in assay [9] and in assay [15] were 1.3e+06 M⁻¹ s⁻¹, 560000 M⁻¹ s⁻¹ and 1e+06 M⁻¹ s⁻¹, respectively. Further, the “Fold-improvement with respect to Ig-1A” value in assay [10] is 2 fold; in assay [11], 2.2 fold; in assay [14], 1 fold. Further, the “rank in the VEGFR-3-Ba/F3 bioassay” value in assay [12] and in assay [13] was 2 rank each time.

B5: humanized IgG antibody derived from clone AW61 (antibody, V domains shown)
VH: QVQLVQSGAEVKQPGASVKVSCKASGYTFTGYNMYWVRQAPGQGLEWMGYIDPYNGDTTYNQKFKGRATMTTDTSTSTAYMKLRSLRSDDTAVYYCARTSYYGGMDYWGRGTLVTVAS
VL: DIVMTQTPLSSPVTLGQPASISCRSSQSLVHSNGNTYLHWLQQRPGQPPRLLIYKVSNRFSGVPDRFSGSGAGTDFTLKISRVEAEDVGVYYCSQSTHVPRTFGQGTKLEIKR
notes: IgG
As for B5, in assay [11], the “Fold-improvement with respect to Ig-1A” value is 2.2 fold. Besides, in assay [12], the “rank in the VEGFR-3-Ba/F3 bioassay” value came to 6 rank. Also, the “rank in the VEGFR-3-Ba/F3 bioassay” value in [13] was 4 rank. In assay [15], the Kd turned out to be 4.1 nM and the koff was 0.00725 s⁻¹.
